The supplement of paper PMC5998384

Experiments:
HeLa Kyoto [1] = assay: solubility in G1/S (NP-40 vs SDS abundance) (log2 ratio); higher = more soluble; conditions: cell cycle stage: G1/S
HeLa Kyoto [2] = assay: melting temperature (median over replicates), in situ; higher = more thermally stable
HeLa Kyoto [3] = assay: solubility change mitosis vs G1/S (difference of NP-40 vs SDS log2 ratios) (log2 ratio difference); higher = more soluble in mitosis
HeLa Kyoto [4] = assay: thermal stability score vs G1/S (z-score of summed log2 fold changes over temperatures); higher = more thermally stable than in G1/S
[5] = cell cycle stage: early G1 (4.5 h after nocodazole release)
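Wherever melting temperature (median over replicates), in situ is given: HeLa Kyoto cells synchronized by double thymidine or nocodazole block, proteins quantified by TMT10plex mass spectrometry, three independent biological replicates.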
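Wherever solubility change mitosis vs G1/S (difference of NP-40 vs SDS log2 ratios) is given: synchronized HeLa Kyoto cells (double thymidine block for G1/S, nocodazole release for mitosis), protein amounts in NP-40 versus SDS lysates quantified by mass spectrometry, three biological replicates.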
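Wherever solubility in G1/S (NP-40 vs SDS abundance) is given: HeLa Kyoto cells arrested at G1/S by double thymidine block, proteins quantified by TMT10plex mass spectrometry in mild NP-40 versus SDS extracts, three biological replicates.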
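Wherever thermal stability score vs G1/S (z-score of summed log2 fold changes over temperatures) is given: synchronized HeLa Kyoto cells, proteins quantified by TMT10plex mass spectrometry, three biological replicates, mitosis taken 0.5 h after nocodazole release, G1/S directly after double thymidine block.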

MGSKGVYQYHWQSHNVKHSGVDDMVLLSKITENSIVENLKKRYMDDYIFTYIGSVLISVNPFKQMPYFGEKEIEMYQGAAQYENPPHIYALADNMYRNMIIDRENQCVIISGESGAGKTVAAKYIMSYISRVSGGGTKVQHVKDIILQSNPLLEAFGNAKTVRNNNSSRFGKYFEIQFSPGGEPDGGKISNFLLEKSRVVMRNPGERSFHIFYQLIEGASAEQKHSLGITSMDYYYYLSLSGSYKVDDIDDRREFQETLHAMNVIGIFAEEQTLVLQIVAGILHLGNISFKEVGNYAAVESEEFLAFPAYLLGINQDRLKEKLTSRQMDSKWGGKSESIHVTLNVEQACYTRDALAKALHARVFDFLVDSINKAMEKDHEEYNIGVLDIYGFEIFQKNGFEQFCINFVNEKLQQIFIELTLKAEQEEYVQEGIRWTPIEYFNNKIVCDLIENKVNPPGIMSILDDVCATMHAVGEGADQTLLQKLQMQIGSHEHFNSWNQGFIIHHYAGKVSYDMDGFCERNRDVLFMDLIELMQSSELPFIKSLFPENLQADKKGRPTTAGSKIKKQANDLVSTLMKCTPHYIRCIKPNETKKPRDWEESRVKHQVEYLGLKENIRVRRAGYAYRRIFQKFLQRYAILTKATWPSWQGEEKQGVLHLLQSVNMDSDQFQLGRSKVFIKAPESLFLLEEMRERKYDGYARVIQKSWRKFVARKKYVQMREEASDLLLNKKERRRNSINRNFIGDYIGMEEHPELQQFVGKREKIDFADTVTKYDRRFKGVKRDLLLTPKCLYLIGREKVKQGPDKGLVKEVLKRKIEIERILSVSLSTMQDDIFILHEQEYDSLLESVFKTEFLSLLAKRYEEKTQKQLPLKFSNTLELKLKKENWGPWSAGGSRQVQFHQGFGDLAVLKPSNKVLQVSIGPGLPKNSRPTRRNTTQNTGYSSGTQNANYPVRAAPPPPGYHQNGVIRNQYVPYPHAPGSQRSNQKSLYTSMARPPLPRQQSTSSDRVSQTPESLDFLKVPDQGAAGVRRQTTSRPPPAGGRPKPQPKPKPQVPQCKALYAYDAQDTDELSFNANDIIDIIKEDPSGWWTGRLRGKQGLFPNNYVTKI [MYO1E]
solubility in G1/S (log2) (HeLa Kyoto [1]): -0.131
melting temperature (HeLa Kyoto [2]; cell cycle stage: G1/S): 49.6 °C
melting temperature (HeLa Kyoto [2]; cell cycle stage: mitosis): 49.5 °C
solubility change mitosis (log2) (HeLa Kyoto [3]): -0.207
thermal stability score (HeLa Kyoto [4]; [5]): -0.0451
thermal stability score (HeLa Kyoto [4]; cell cycle stage: mitosis): 1.13

MGSRASTLLRDEELEEIKKETGFSHSQITRLYSRFTSLDKGENGTLSREDFQRIPELAINPLGDRIINAFFPEGEDQVNFRGFMRTLAHFRPIEDNEKSKDVNGPEPLNSRSNKLHFAFRLYDLDKDEKISRDELLQVLRMMVGVNISDEQLGSIADRTIQEADQDGDSAISFTEFVKVLEKVDVEQKMSIRFLH [CHP1]
solubility in G1/S (log2) (HeLa Kyoto [1]): 0.256
melting temperature (HeLa Kyoto [2]; cell cycle stage: G1/S): 51.8 °C
melting temperature (HeLa Kyoto [2]; cell cycle stage: mitosis): 52.6 °C
solubility change mitosis (log2) (HeLa Kyoto [3]): -0.016
thermal stability score (HeLa Kyoto [4]; [5]): -0.997
thermal stability score (HeLa Kyoto [4]; cell cycle stage: mitosis): 0.839

MGSRDHLFKVLVVGDAAVGKTSLVQRYSQDSFSKHYKSTVGVDFALKVLQWSDYEIVRLQLWDIAGQERFTSMTRLYYRDASACVIMFDVTNATTFSNSQRWKQDLDSKLTLPNGEPVPCLLLANKCDLSPWAVSRDQIDRFSKENGFTGWTETSVKENKNINEAMRVLIEKMMRNSTEDIMSLSTQGDYINLQTKSSSWSCC [RAB29]
solubility in G1/S (log2) (HeLa Kyoto [1]): 0.0397
melting temperature (HeLa Kyoto [2]; cell cycle stage: G1/S): 53 °C
melting temperature (HeLa Kyoto [2]; cell cycle stage: mitosis): 52.9 °C
solubility change mitosis (log2) (HeLa Kyoto [3]): -0.119
thermal stability score (HeLa Kyoto [4]; [5]): -0.342
thermal stability score (HeLa Kyoto [4]; cell cycle stage: mitosis): -0.372

MGSSKKHRGEKEAAGTTAAAGTGGATEQPPRHREHKKHKHRSGGSGGSGGERRKRSRERGGERGSGRRGAEAEARSSTHGRERSQAEPSERRVKREKRDDGYEAAASSKTSSGDASSLSIEETNKLRAKLGLKPLEVNAIKKEAGTKEEPVTADVINPMALRQREELREKLAAAKEKRLLNQKLGKIKTLGEDDPWLDDTAAWIERSRQLQKEKDLAEKRAKLLEEMDQEFGVSTLVEEEFGQRRQDLYSARDLQGLTVEHAIDSFREGETMILTLKDKGVLQEEEDVLVNVNLVDKERAEKNVELRKKKPDYLPYAEDESVDDLAQQKPRSILSKYDEELEGERPHSFRLEQGGTADGLRERELEEIRAKLRLQAQSLSTVGPRLASEYLTPEEMVTFKKTKRRVKKIRKKEKEVVVRADDLLPLGDQTQDGDFGSRLRGRGRRRVSEVEEEKEPVPQPLPSDDTRVENMDISDEEEGGAPPPGSPQVLEEDEAELELQKQLEKGRRLRQLQQLQQLRDSGEKVVEIVKKLESRQRGWEEDEDPERKGAIVFNATSEFCRTLGEIPTYGLAGNREEQEELMDFERDEERSANGGSESDGEENIGWSTVNLDEEKQQQDFSASSTTILDEEPIVNRGLAAALLLCQNKGLLETTVQKVARVKAPNKSLPSAVYCIEDKMAIDDKYSRREEYRGFTQDFKEKDGYKPDVKIEYVDETGRKLTPKEAFRQLSHRFHGKGSGKMKTERRMKKLDEEALLKKMSSSDTPLGTVALLQEKQKAQKTPYIVLSGSGKSMNANTITK [SART1]
solubility in G1/S (log2) (HeLa Kyoto [1]): -0.654
melting temperature (HeLa Kyoto [2]; cell cycle stage: G1/S): 50.8 °C
melting temperature (HeLa Kyoto [2]; cell cycle stage: mitosis): 51.6 °C
solubility change mitosis (log2) (HeLa Kyoto [3]): 0.448
thermal stability score (HeLa Kyoto [4]; [5]): 0.893
thermal stability score (HeLa Kyoto [4]; cell cycle stage: mitosis): 3.51
